Drawing on patent WO2010047829A1, this text covers IC50 titer, neutralization of HCVpp-H77 for two substances.

The target of this test is E1E2 (isolate H77), produced by transfected 293T cells (hepatitis C virus isolate H77 (genotype 1a)) (UniProt P27958). As to the kind of experiment: cell-based or functional assay.

The substance MAb AR3B (antibody) showed an IC50 titer, neutralization of HCVpp-H77 of 1 µg/mL.
As for MAb AR3A (antibody), the figure is 0.4 µg/mL.
